# Measurements from patent US20210072252A1 (WASHINGTON UNIVERSITY, published 2021).
# Assays:
# [1] = biological target: peptide with N-terminal serine; experiment: biolayer interferometry (Blitz), peptide-coated sensor, NAAB in 1x PBS, 1:1 fit, kd/ka
# [2] = biological target: peptide with N-terminal valine; experiment: as above
# [3] = biological target: peptide with N-terminal isoleucine; experiment: as above
# [4] = biological target: peptide with N-terminal lysine; experiment: as above
# [5] = biological target: peptide with N-terminal arginine; experiment: as above
# [6] = biological target: peptide with N-terminal asparagine; experiment: as above
# [7] = biological target: peptide with N-terminal glutamine; experiment: as above
# [8] = biological target: peptide with N-terminal glutamate; experiment: as above
# [9] = biological target: peptide with N-terminal methionine (biolayer interferometry); experiment: as above
# [10] = biological target: peptide with N-terminal threonine; experiment: as above
# [11] = biological target: synthetic peptide with N-terminal leucine (Example 1, on nanogel surface); experiment: single-molecule detection, TIRF microscopy; Cy5-labeled NAAB on peptide immobilized on nanogel; counts per field of view
# Protocol: The NAAB for N-terminal leucine amino acids was non-specifically labeled with Cy5 fluorophore on lysine side chains. […] An additional experiment was performed with no peptide added. The labeled NAAB was briefly incubated with the immobilized peptide, and unbound protein was removed by washing. Bound protein, which may be bound specifically to peptides or non-specifically to the surface, was imaged by total internal reflection fluorescence (TIRF) microscopy. Spots exceeding a detection threshold were deemed to indicate bound protein and were converted to a number of counts per field-of-view.
binder,measurement,setting,value
"SerNAAB (enzyme, Purified on GSTrap; also called Serine) MLDPNLLRNEPDAVAEKLARRGFKLDVDKLGALEERRKVLQVKTENLQAERNSRSKSIGQAKARGEDIEPLRLEVNKLGEELDAAKAELDALQAEIRDIALTIPNLPADEVPVGKDENDNVEVSRWGTPREFDFEVRDHVTLGEMYSGLDFAAAVKLTGSRFVVMKGQIARMHRALSQFMLDLHTEQHGYSENYVPYLVNQDTLYGTGQLPKFAGDLFHTRPLEEEADTSNYALIPTAEVPLTNLVRGEIIDEDDLPIKMTAHTPCFRSEAGSYGRDTRGLIRMHQFDKVEMVQIVRPEDSMAALEEMTGHAEKVLQLLGLPYRKIILCTGDMGFGACKTYDLEVWIPAQNTYREISSCSNVWDFQARRMQARCRSKSDKKTRLVHTLNGSGLAVGRTLVAVMENYQQADGRIEVPEVLRPYMNGLEYI",Kd,[1],938 nM
"ValNAAB (enzyme, Purified on GSTrap; also called Valine) MEKTYNPQDIEQPLYEHWEKQGYFKPNGDESQESFCIMIPPPNVTGSLHMGHAFQQTIMDTMIRYQRMQGKNTLWQVGTDHAGIATQMVVERKIAAEEGKTRHDYGREAFIDKIWEWKAESGGTITRQMRRLGNSVDWERERFTMDEGLSNAVKEVFVRLYKEDLIYRGKRLVNWDPKLRTAISDLEVENRESKGSMWHIRYPLADGAKTADGKDYLVVATTRPETLLGDTGVAVNPEDPRYKDLIGKYVILPLVNRRIPIVGDEHADMEKGTGCVKITPAHDFNDYEVGKRHALPMINILTFDGDIRESAQVFDTKGNESDVYSSEIPAEFQKLERFAARKAVVAAIDALGLLEEIKPHDLTVPYGDRGGVVIEPMLTDQWYVRADVLAKPAVEAVENGDIQFVPKQYENMYFSWMRDIQDWCISRQLWWGHRIPAWYDEAGNVYVGRNEEEVRKENNLGADVALRQDEDVLDTWFSSALWTFSTLGWPENTDALRQFHPTSVMVSGFDIIFFWIARMIMMTMHFIKDENGKPQVPFHTVYMTGLIRDDEGQKMSKSKGNVIDPLDMVDGISLPELLEKRTGNMMQPQLADKIRKRTEKQFPNGIEPHGTDALRFTLAALASTGRDINWDMKRLEGYRNFCNKLWNASRFVLMNTEGQDCGFNGGEMTLSLADRWILAEFNQTIKAYREALDSFRFDIAAGILYEFTWNQFCDWYLELTKPVMNGGTEAELRGTRHTLVTVLEGLLRLAHPIIPFITETIWQ",Kd,[2],1220 nM
"IleNAAB (enzyme, Purified on GSTrap; also called Isoleucine) FPMRGDLAKREPGMLARWTDDDLYGIIRAAKKGKKTFILHDGPPYANGSIHIGHSVNKILKDIIIKSKGLSGYDSPYVPGWDCHGLPIELKVEQEYGKPGEKFTAAEFRAKCREYAATQVDGQRKDFIRLGVLGDWSHPYLTMDFKTEANIIRALGKIIGNGHLHKGAKPVHWCVDCRSALAEAEVEYYDKTSPSIVAFQAVDQDALKTKFGVSNVNGPISLVIWTTTPWTLPANRAISIAPDFDYALVQIDGQAVILAKDLVESMQRIGVSDYTILGTVKGAELELLRFTHPFMDFDVPAILGDHVTLDAGTGAVHTAPGHGPDDYVIGQKYGLETANPVGPDGTYLPGTYPTLDGVNVFKANDIVVALLQEKGALLHVEKMQHSYPCCWRHKTPIIFRATPQWFVSMDQKGLRAQSLKEIKGVQWIPDWGQARIESMVANRPDWCISRQRTWGVPMSLFVHKDTEELHPRTLELMEEVAKRVEVDGIQAWWDLDAKEILGDEADQYVKVPDTLDVWFDSGSTHSSVVDVRPEFAGHAADMYLEGSDQHRGWFMSSLMISTAMKGKAPYRQVLTHGFTVDGQGRKMSKSIGNTVSPQDVMNKLGADILRLWVASTDYTGEMAVSDEILKRAADSYRRIRNTARFLLANLNGFDPAKDMVKPEEMVVLDRWAVGCAKAAQEDILKAYEAYDFHEVVQRLMRFCSVEMGSFYLDIIKDRQYTAKADSVARRSCQTALYHIAEALVRWMAPILSFTADEVWGYLPGERE",Kd,[3],3010 nM
"LysNAAB (enzyme, Purified on GSTrap; also called Lysine) ANDKSRQTFVVRSKILAAIRQFMVARGFMEVETPMMQVIPGGASARPFITHHNALDLDMYLRIAPELYLKRLVVGGFERVFEINRNFRNEGISVRHNPEFTMMELYMAYADYHDLIELTESLFRTLAQEVLGTTKVTYGEHVFDFGKPFEKLTMREAIKKYRPETDMADLDNFDAAKALAESIGITVEKSWGLGRIVTEIFDEVAEAHLIQPTFITEYPAEVSPLARRNDVNPEITDRFEFFIGGREIGNGFSELNDAEDQAERFQEQVNAKAAGDDEAMFYDEDYVTALEYGLPPTAGLGIGIDRMIMLFTNSHTIRDVILFPAMRP",Kd,[4],2610 nM
"ArgNAAB (enzyme, Purified on GSTrap; also called Arginine) EKQTIVVDYSAPNVAKEMHVGHLRSTIIGDAAVRTLEFLGHKVIRANHVGDWGTQFGMLIAWLEKQQQENAGEMELADLEGFYRDAKKHYDEDEEFAERARNYVVKLQSGDEYFREMWRKLVDITMTQNQITYDRLNVTLTRDDVMGESLYNPMLPGIVADLKAKGLAVESEGATVVFLDEFKNKEGEPMGVIIQKKDGGYLYTTTDIACAKYRYESLHADRVLYYIDSRQHQHLMQAWAIVRKAGYVPESVPLEHHMFGMMLGKDGKPFKTRAGGTVKLADLLDETLERARRLVAEKNPDMPADELEKLANAVGIGAVKYADLSKNRTTDYIFDWDNMLAFEGNTAPYMQYAYTRVLSVFRKAEINEEQLAAAPVIIREDREAQLAARLLQFEETLTVVAREGTPHVMCAYLYDLAGLFSGFYEHCPILSAENEEVRNSRLKLAQLTAKTLKLGLDTLGIETVERM",Kd,[5],129 nM
"AsnNAAB (enzyme, Purified on GSTrap; also called Asparagine) SIEYLREVAHLRPRTNLIGAVARVRHTLAQALHRFFNEQGFFWVSTPLITASDTEGAGEMFRVSTLDLENLPRNDQGKVDFDKDFFGKESFLTVSGQLNGETYACALSKIYTFGPTFRAENSNTSRHLAEFWMLEPEVAFANLNDIAGLAEAMLKYVFKAVLEERADDMKFFAERVDKDAVSRLERFIEADFAQVDYTDAVTILENCGRKFENPVYWGVDLSSEHERYLAEEHFKAPVVVKNYPKDIKAFYMRLNEDGKTVAAMDVLAPGIGEIIGGSQREERLDVLDERMLEMGLNKEDYWWYRDLRRYGTVPHSGFGLGFERLIAYVTGVQNVRDVIPFPRTP",Kd,[6],754 nM
"GlnNAAB (enzyme, Purified on GSTrap; also called Glutamine) TNFIRQIIDEDLASGKHTTVHTRFPPEPNGYLHIGHAKSICLNFGIAQDYKGQCNLRFDDTNPVKEDIEYVESIKNDVEWLGFHWSGNVRYSSDYFDQLHAYAIELINKGLAYVDELTPEQIREYRGTLTQPGKNSPYRDRSVEENLALFEKMRTGGFEEGKACLRAKIDMASPFIVMRDPVLYRIKFAEHHQTGNKWCIYPMYDFTHCISDALEGITHSLCTLEFQDNRRLYDWVLDNITIPVHPRQYEFSR",Kd,[7],531 nM
"GluNAAB (enzyme, also called Glutamate) IKTRFAPSPTGYLHVGGARTALYSWLFARNHGGEFVLRIEDTDLERSTPEAIEAIMDGMNWLSLEWDEGPYYQTKRFDRYNAVIDQMLEEGTAYKCYCSKERLEALREEQMAKGEKPRYDGRCRHSHEHHADDEPCVVRFANPQEGSVVFDDQIRGPIEFSNQELDDLIIRRTDGSPTYNFCVVVDDWDMEITHVIRGEDHINNTPRQINILKALNAPVPVYAHVSMINGDDGKKLSKRHGAVSVMQYRDDGYLPEALLNYLVRLGWSHGDQEIFTREEMIKYFTLNAVSKSASAFNTDKLLWLNHHYI",Kd,[8],2120 nM
"Met NAAB (as used in biolayer interferometry) (designed binder, Same engineered MetRS fragment as m5, here without stated Cy5 label; also called Methionine) AKKILVTCASPYANGSIHLGHMLEHIQADVWVRYQRMRGHEVNFICADDAHGTPIMLKAQQLGITPEQMIGEMSQEHQTDFAGFNISYDNYHSTHSEENRQLSELIYSRLKENGFIKNRTISQLYDPEKGMFLPDRFVKGTCPKCKSPDQYGDNCEVCGATYSPTELIEPKSVVSGATPVMRDSEHFFFDLPSFSEMLQAWTRSGALQEQVANKMQEWFESGLQQWDISRDAPYFGFEIPNAPGKYFYVWLDAPIGLMGSFKNLCDKRGDSVSFDEYWKKDSTAELYHFIGKGIVYFLSLFWPAMLEGSNFRKPSNLFVHGYVTVNGAKMSKSRGTFIKASTWLNHFDADSLRYYYTAKLSSRIDDIDLNLEDFVQRVNADIVNKVVNLASRNAGFINKRFDGVLASELADPQLYKTFTDAAEVIGEAWESREFGKAVREIMALADLANRYVDEQAPWVVAKQEGRDADLQAICSMGINLFRVLMTYLKPVLPKLTERAEAFLNTELTWDGIQQPLLGHKVNPFKALYNRIDMRQVEALVEASK",Kd,[9],1070 nM
"ThreNAAB (enzyme, Purified on GSTrap; also called Threonine) RDHRKIGKQLDLYHMQEEAPGMVFWHNDGWTIFRELEVFVRSKLKEYQYQEVKGPFMMDRVLWEKTGHWDNYKDAMFTTSSENREYCIKPMNCPGHVQIFNQGLKSYRDLPLRMAEFGSCHRNEPSGSLHGLGRVRGFTQDDAHIFCTEEQIRDEVNGCIRLVYDMYSTFGFEKIVVKLSTRPEKRIGSDEMWDRAEADLAVALEENNIPFEYQLGEGAFYGPKIEFTLYDCLDRAAQCGTVQLDFSLPSRLSASYVGEDNERKVPVMIHRAILGSMEVFIGILTEEFAGFFPTWLAPVQVVIMNITDSQSEYVNELTQKLSNAGIRVKADLRNEKIGFKIREHTLRRVPYMLVCGDKEVESGKVAVRTRRGKDLGSMDVNEVIEKLQQEIRSRSLKQLEE",Kd,[10],1010 nM
"eLAP, engineered leucine-specific aminopeptidase (NAAB for N-terminal leucine) (designed binder, Cy5 fluorophore non-specifically on lysine side chains, also called NAAB for leucine) MAISIKTPEDIEKMRVAGRLAAEVLEMIEPYVKPGVSTGELERICWDYIVNEQHATDSLTGHNGIDGHGSISINEVVCHGVPDDAKLLKDGDIVNIDVTVRKDGFHGDTSKMFIVGKPTIMGERLCRITQESLYLALRMVKPGINLREIGAAIQKFVEAEGFSVVREYCGHGIGRGHHEEPQVLHYDSRETNVVLKPGMTFTIEPMVNAGKKEIRTMKDGSTVKTKDRSLSAQYEHTIVVTDNGCEILTLRKDDTIPAIISHDE",ratio of specific to non-specific binding,[11],~2 to 1
